± gives the standard deviation of the averaged measurements.
Assay: total protein half-life in vivo (active degradation + dilution); higher = more stable protein
[1] = E. coli NCM3722 delta-smpB, growth: N-lim chemostat, doubling time 6 h
[2] = wild type E. coli NCM3722, growth: C-lim chemostat, doubling time 3 h
[3] = wild type E. coli NCM3722, growth: C-lim chemostat, doubling time 6 h
[4] = wild type E. coli NCM3722, growth: C-lim chemostat, doubling time 12 h
[5] = wild type E. coli NCM3722, growth: P-lim chemostat, doubling time 12 h
[6] = E. coli NCM3722 delta-clpP delta-lon delta-hslV, growth: N-lim chemostat, doubling time 6 h
[7] = E. coli NCM3722 delta-clpP, growth: N-lim chemostat, doubling time 6 h
[8] = E. coli NCM3722 delta-hslV, growth: N-lim chemostat, doubling time 6 h
[9] = E. coli NCM3722 delta-lon, growth: N-lim chemostat, doubling time 6 h
[10] = wild type E. coli NCM3722, growth: N-lim chemostat, doubling time 6 h
[11] = wild type E. coli NCM3722, growth: N-lim chemostat, doubling time 12 h
[12] = wild type E. coli NCM3722, growth: P-lim chemostat, doubling time 6 h

Row | Sequence | total protein half-life in vivo [1] [h] | total protein half-life in vivo [2] [h] | total protein half-life in vivo [3] [h] | total protein half-life in vivo [4] [h] | total protein half-life in vivo [5] [h] | total protein half-life in vivo [6] [h] | total protein half-life in vivo [7] [h] | total protein half-life in vivo [8] [h] | total protein half-life in vivo [9] [h] | total protein half-life in vivo [10] [h] | total protein half-life in vivo [11] [h] | total protein half-life in vivo [12] [h]
1 | MPLLHLLRQNPVIAAVKDNASLQLAIDSECQFISVLYGNICTISNIVKKIKNAGKYAFIHVDLLEGASNKEVVIQFLKLVTEADGIISTKASMLKAARAEGFFCIHRLFIVDSISFHNIDKQVAQSNPDCIEILPGCMPKVLGWVTEKIRQPLIAGGLVCDEEDARNAINAGVVALSTTNTGVWTLAKKLL | 3.74 | 2.77 ± 0.24 | 4.77 ± 0.7 | 12.1 ± 1.7 | 8.94 | – | – | – | – | – | – | –
2 | MPLLKLWAGSLVMLAAVSLPLQAASPVKVGSKIDTEGALLGNIILQVLESHGVPTVNKVQLGTTPVVRGAITSGELDIYPEYTGNGAFFFKDENDAAWKNAQQGYEKVKKLDSEHNKLIWLTPAPANNTWTIAVRQDVAEKNKLTSLADLSRYLQEGGTFKLAASAEFIERADALPAFEKAYGFKLGQDQLLSLAGGDTAVTIKAAAQQTSGVNAAMAYGTDGPVAALGLQTLSDPQGVQPIYAPAPVVRESVLREYPQMAQWLQPVFASLDAKTLQQLNASIAVEGLDAKKVAADYLKQKGWTK | 5.47 ± 0.21 | 3.08 ± 0.17 | 5.7 ± 0.057 | 9.88 ± 1.8 | 12 ± 0.14 | 4.32 ± 0.22 | 5 ± 0.74 | 6.28 ± 0.2 | 7.16 ± 0.13 | 5.95 ± 0.34 | 12 ± 0.96 | 6.08 ± 0.75
3 | MPLPDFRLIRLLPLAALVLTACSVTTPKGPGKSPDSPQWRQHQQDVRNLNQYQTRGAFAYISDQQKVYARFFWQQTGQDRYRLLLTNPLGSTELELNAQPGNVQLVDNKGQRYTADDAEEMIGKLTGMPIPLNSLRQWILGLPGDATDYKLDDQYRLSEITYSQNGKNWKVVYGGYDTKTQPAMPANMELTDGGQRIKLKMDNWIVK | 6.06 ± 0.35 | 3.18 ± 0.06 | 6.24 ± 0.15 | 11.8 ± 0.91 | 13.7 ± 0.68 | 5.8 ± 0.1 | 6.43 ± 0.19 | – | – | 6.37 ± 0.46 | 13.22 ± 0.027 | 6.17 ± 0.18
4 | MPLRRFSPGLKAQFAFGMVFLFVQPDASAADISAQQIGGVIIPQAFSQALQDGMSVPLYIHLAGSQGRQDDQRIGSAFIWLDDGQLRIRKIQLEESEDNASVSEQTRQQLMALANAPFNEALTIPLTDNAQLDLSLRQLLLQLVVKREALGTVLRSRSEDIGQSSVNTLSSNLSYNLGVYNNQLRNGGSNTSSYLSLNNVTALREHHVVLDGSLYGIGSGQQDSELYKAMYERDFAGHRFAGGMLDTWNLQSLGPMTAISAGKIYGLSWGNQASSTIFDSSQSATPVIAFLPAAGEVHLTRDGRLLSVQNFTMGNHEVDTRGLPYGIYDVEVEVIVNGRVISKRTQRVNKLFSRGRGVGAPLAWQVWGGSFHMDRWSENGKKTRPAKESWLAGASTSGSLSTLSWAATGYGYDNQAVGETRLTLPLGGAINVNLQNMLASDSSWSSIGSISATLPGGFSSLWVNQEKTRIGNQLRRSDADNRAIGGTLNLNSLWSKLGTFSISYNDDRRYNSHYYTADYYQNVYSGTFGSLGLRAGIQRYNNGDSNANTGKYIALDLSLPLGNWFSAGMTHQNGYTMANLSARKQFDEGTIRTVGANLSRAISGDTGDDKTLSGGAYAQFDARYASGTLNVNSAADGYVNTNLTANGSVGWQGKNIAASGRTDGNAGVIFNTGLEDDGQISAKINGRIFPLNGKRNYLPLSPYGRYEVELQNSKNSLDSYDIVSGRKSRLTLYPGNVAVIEPEVKQMVTVSGRIRAEDGTLLANARINNHIGRTRTDENGEFVMDVDKKYPTIDFRYSGNKTCEVALELNQARGAVWVGDVVCSGLSSWAAVTQTGEENES | – | 2.91 | – | – | – | – | – | – | – | – | – | –
5 | MPLVIVAIGVILLLLLMIRFKMNGFIALVLVALAVGLMQGMPLDKVIGSIKAGVGGTLGSLALIMGFGAMLGKMLADCGGAQRIATTLIAKFGKKHIQWAVVLTGFTVGFALFYEVGFVLMLPLVFTIAASANIPLLYVGVPMAAALSVTHGFLPPHPGPTAIATIFNADMGKTLLYGTILAIPTVILAGPVYARVLKGIDKPIPEGLYSAKTFSEEEMPSFGVSVWTSLVPVVLMAMRAIAEMILPKGHAFLPVAEFLGDPVMATLIAVLIAMFTFGLNRGRSMDQINDTLVSSIKIIAMMLLIIGGGGAFKQVLVDSGVDKYIASMMHETNISPLLMAWSIAAVLRIALGSATVAAITAGGIAAPLIATTGVSPELMVIAVGSGSVIFSHVNDPGFWLFKEYFNLTIGETIKSWSMLETIISVCGLVGCLLLNMVI | 6.06 ± 0.3 | – | – | 10 ± 0.67 | – | – | 6.71 ± 1 | 5.83 ± 0.38 | 6.2 ± 0.55 | 5.75 | 13 | –
6 | MPPRALLLVDLQNDFCAGGALAVPEGDSTVDVANRLIDWCQSRGEAVIASQDWHPANHGSFASQHGVEPYTPGQLDGLPQTFWPDHCVQNSEGAQLHPLLHQKAIAAVFHKGENPLVDSYSAFFDNGRRQKTSLDDWLRDHEIDELIVMGLATDYCVKFTVLDALQLGYKVNVITDGCRGVNIQPQDSAHAFMEMSAAGATLYTLADWEETQG | 3.78 ± 0.19 | 3.05 ± 0.12 | 6.27 ± 1.3 | 10.1 ± 0.99 | 11.1 ± 0.22 | 4.67 ± 0.11 | 3.93 ± 0.17 | – | 4.52 ± 1.1 | 4.16 ± 0.32 | 6.53 | 4.76
7 | MPPRRYNPDTRRDELLERINLDIPGAVAQALREDLGGTVDANNDITAKLLPENSRSHATVITRENGVFCGKRWVEEVFIQLAGDDVTIIWHVDDGDVINANQSLFELEGPSRVLLTGERTALNFVQTLSGVASKVRHYVELLEGTNTQLLDTRKTLPGLRSALKYAVLCGGGANHRLGLSDAFLIKENHIIASGSVRQAVEKASWLHPDAPVEVEVENLEELDEALKAGADIIMLDNFETEQMREAVKRTNGKALLEVSGNVTDKTLREFAETGVDFISVGALTKHVQALDLSMRFR | 4.05 ± 0.33 | 2.86 ± 0.25 | 5.827 ± 0.04 | 8.46 ± 0.51 | 9.73 ± 0.27 | 4.6 ± 0.47 | 5.46 ± 2.3 | 4.1 ± 0.29 | 6.13 ± 1.8 | 3.72 ± 0.12 | 7.1 ± 0.15 | 5.5 ± 0.4
8 | MPQSALFTGIIPPVSTIFTADGQLDKPGTAALIDDLIKAGVDGLFFLGSGGEFSQLGAEERKAIARFAIDHVDRRVPVLIGTGGTNARETIELSQHAQQAGADGIVVINPYYWKVSEANLIRYFEQVADSVTLPVMLYNFPALTGQDLTPALVKTLADSRSNIIGIKDTIDSVAHLRSMIHTVKGAHPHFTVLCGYDDHLFNTLLLGGDGAISASGNFAPQVSVNLLKAWRDGDVAKAAGYHQTLLQIPQMYQLDTPFVNVIKEAIVLCGRPVSTHVLPPASPLDEPRKAQLKTLLQQLKLC | – | – | – | – | – | – | – | 3.07 | – | – | – | –
9 | MPRFAANLSMMFTEVPFIERFAAARKAGFDAVEFLFPYNYSTLQIQKQLEQNHLTLALFNTAPGDINAGEWGLSALPGREHEAHADIDLALEYALALNCEQVHVMAGVVPAGEDAERYRAVFIDNIRYAADRFAPHGKRILVEALSPGVKPHYLFSSQYQALAIVEEVARDNVFIQLDTFHAQKVDGNLTHLIRDYAGKYAHVQIAGLPDRHEPDDGEINYPWLFRLFDEVGYQGWIGCEYKPRGLTEEGLGWFDAWR | 2.41 ± 0.048 | 2.829 ± 0.0073 | 3.68 ± 0.23 | 6.54 ± 0.17 | 8.69 ± 0.052 | 3.98 | 2.21 | 2.23 | 2.48 ± 0.15 | – | 3.45 | 4.28
10 | MPRLASAVLPLCSQHPGQCGLFPLEKSLDAFAARYRLAEMAEHTLDVQYYIWQDDMSGRLLFSALLAAAKRGVRVRLLLDDNNTPGLDDILRLLDSHPRIEVRLFNPFSFRLLRPLGYITDFSRLNRRMHNKSFTVDGVVTLVGGRNIGDAYFGAGEEPLFSDLDVMAIGPVVEDVADDFARYWYCKSVSPLQQVLDVPEGEMADRIELPASWHNDAMTHRYLRKMESSPFINHLVDGTLPLIWAKTRLLSDDPAKGEGKAKRHSLLPQRLFDIMGSPSERIDIISSYFVPTRAGVAQLLRMVRKGVKIAILTNSLAANDVAVVHAGYARWRKKLLRYGVELYELKPTREQSSTLHDRGITGNSGASLHAKTFSIDGKTVFIGSFNFDPRSTLLNTEMGFVIESETLAQLIDKRFIQSQYDAAWQLRLDRWGRINWVDRHAKKEIILKKEPATSFWKRVMVRLASILPVEWLL | 5.1 ± 0.35 | 2.78 ± 0.11 | 5.38 ± 0.64 | – | – | 5.59 ± 0.72 | 5.95 ± 0.048 | 5.92 ± 1.4 | 5.31 ± 0.46 | 4.78 ± 0.52 | 11.1 ± 0.75 | 5.59 ± 0.044

Source: the supplement of paper PMC11246515
